These results are taken from PMC4572934.

The target in the test is GST-tagged FXR ligand binding domain (FXR-LBD). The experiment in a line: AlphaScreen or HTRF; FXR coactivator recruitment assay with increasing amounts of mometasone furoate (MF); GST-FXR-LBD on anti-GST acceptor beads, biotinylated SRC-1 peptide on streptavidin donor beads; 1 hour incubation with ligand, then 4 hours with beads.

For “biotinylated SRC-1 peptide (co-activator)”, the efficacy of SRC-1 recruitment with MF compared to CDCA was determined as 12%.
